# Reference: patent US20250075249A1 (QUEENSLAND UNIVERSITY OF TECHNOLOGY, published 2025)
# B1: M13 calmodulin binding peptide (peptide, UniProt P07313 578-603, looked up)
# peptide: KRRWKKNFIAVSAANRFKKISSSGAL
# B2: FRB-CaM-BP (fusion of FRB and a low affinity calmodulin binding peptide) (other)
# chain: AHHHHHHSSGTRVAILWHEMWHEGLEEASRLYFGERNVKGMFEVLEPLHAMMERGPQTLKETSFNQAYGRDLMEAQEWCRKYMKSGNVKDLTQAWDLYYHVFRRISGGSGGSGSGSGGSGGKRRWKKNFIAVSAANR
# Experiments:
# Assay in all cases: cell-based or functional assay
# [1] = biological target: Tre G104_P321 CaM chimera
# [2] = biological target: FKBP-2CaM-Tre-FKBP fusion protein
# FKBP-2CaM-BLA-FKBP = biological target: FKBP-2CaM-BLA-FKBP
Binder,EC50 (read off the curve) [1] [nM],"apparent Kd from titration with rapamycin (small molecule varied; 100 nM 2FKBP-Tre-2CaM, 200 nM FRB-CaM-BP; trehalase activity) [2] [nM]","apparent Kd from titration with rapamycin (small molecule varied; 25 nM BLA-2CaM-2FKBP, 100 nM FRB-CaM-BP; β-lactamase activity) (FKBP-2CaM-BLA-FKBP) [nM]"
B1,~60,–,–
B2,–,89,11
